Laboratory results reported in the Human Domainome abundance scans (Beltran et al. 2025).
± gives the uncertainty stated by the source.

B1: FERM and PDZ domain-containing protein 4, residues 75 to 154; numbered along this chain, Q14CM0 (parent)
chain: APRKVEMRRDPVLGFGFVAGSEKPVVVRSVTPGGPSEGKLIPGDQIVMINDEPVSAAPRERVIDLVRSCKESILLTVIQP

Variants of: B1
Assay: abundance fitness (aPCA) (normalised: wild type 0, dead -1); higher = more abundant; growth selection in yeast, the domain comes from the species named
Conditions: Homo sapiens

Point of comparison: V54T, abundance fitness -0.13 ± 0.028. Against it:
- V62D — lower, -0.793 ± 0.053
- V62W — lower, -0.4 ± 0.034
- V62R — lower, -0.917 ± 0.037
- V62G — lower, -0.936 ± 0.046
- V62N — lower, -0.738 ± 0.04
- V62M — lower, -0.383 ± 0.031
- V62E — lower, -0.86 ± 0.057
- V62L — lower, -0.199 ± 0.022
- V62Q — lower, -0.745 ± 0.042
- V62S — lower, -0.666 ± 0.027
- V62A — lower, -0.32 ± 0.029
- V62K — lower, -1.03 ± 0.065
- V62H — lower, -0.711 ± 0.039
- V62T — lower, -0.25 ± 0.025
- V62P — lower, -0.841 ± 0.043
- V62Y — lower, -0.248 ± 0.03
- V62F — within error, -0.17 ± 0.027
- D64I — lower, -0.788 ± 0.051
- D64S — higher, -0.023 ± 0.023
- D64F — lower, -0.354 ± 0.031
- D64H — higher, -0.045 ± 0.028
- D64M — lower, -0.247 ± 0.031
- D64Q — higher, -0.013 ± 0.029
- D64W — lower, -0.222 ± 0.033
- D64T — within error, -0.109 ± 0.026
- D64V — lower, -0.593 ± 0.032
- D64G — higher, -0.038 ± 0.028
- D64N — higher, -0.055 ± 0.03
- D64Y — lower, -0.252 ± 0.031
- D64R — higher, -0.049 ± 0.025
- D64C — lower, -0.295 ± 0.031
- D64A — within error, -0.081 ± 0.025
- D64L — lower, -0.466 ± 0.025
- D64E — higher, -0.011 ± 0.031
- D64K — higher, -0.06 ± 0.029
- D64P — lower, -0.51 ± 0.034
- V54W — lower, -1.07 ± 0.11
- V54Y — lower, -0.911 ± 0.058
- L65R — within error, -0.093 ± 0.02
- L65T — within error, -0.114 ± 0.028
- L65F — within error, -0.109 ± 0.041
- L65H — within error, -0.205 ± 0.047
- L65N — lower, -0.349 ± 0.043
- L65M — higher, -0.002 ± 0.031
- L65Q — within error, -0.094 ± 0.03
- L65V — within error, -0.105 ± 0.023
- L65A — higher, -0.056 ± 0.024
- L65D — lower, -0.462 ± 0.04
- L65I — higher, -0.052 ± 0.041
- L65C — within error, -0.158 ± 0.034
- L65W — lower, -0.244 ± 0.025
- L65G — lower, -0.377 ± 0.022
- L65S — within error, -0.178 ± 0.024
- L65K — higher, -0.022 ± 0.029
- L65P — lower, -0.841 ± 0.055
- L65E — lower, -0.249 ± 0.028
- E60G — higher, -0.025 ± 0.019
- E60S — higher, -0.005 ± 0.024
- E60K — higher, -0.015 ± 0.029
- E60Y — within error, -0.178 ± 0.036
- E60F — within error, -0.183 ± 0.035
- E60D — higher, -0.049 ± 0.032
- E60W — within error, -0.112 ± 0.024
- E60H — higher, -0.038 ± 0.037
- E60V — within error, -0.131 ± 0.022
- E60M — higher, -0.048 ± 0.03
- E60R — higher, -0.041 ± 0.02
- E60T — higher, -0.03 ± 0.026
- E60I — lower, -0.21 ± 0.04
- E60C — higher, -0.059 ± 0.028
- E60P — within error, -0.077 ± 0.029
- E60L — within error, -0.137 ± 0.022
- E60N — higher, -0.028 ± 0.038
- S55P — within error, -0.027 ± 0.19
- S55F — within error, -0.143 ± 0.055
- S55T — within error, -0.157 ± 0.25
- R61T — higher, -0.037 ± 0.03
- R61E — within error, -0.071 ± 0.035
- R61F — higher, -0.044 ± 0.034
- R61H — higher, -0.012 ± 0.031
- R61S — higher, -0.029 ± 0.024
- R61D — higher, -0.021 ± 0.035
- R61Q — higher, -0.005 ± 0.032
- R61W — within error, -0.082 ± 0.032
- R61Y — higher, -0.019 ± 0.03
- R61K — higher, -0.01 ± 0.032
- R61I — within error, -0.107 ± 0.033
- R61P — lower, -0.505 ± 0.04
- R61N — higher, -0.041 ± 0.032
- R61M — higher, -0.059 ± 0.032
- R61C — higher, -0.065 ± 0.032
- R61G — within error, -0.134 ± 0.029
- R61A — higher, -0.018 ± 0.029
- R61V — higher, -0.044 ± 0.026
- I63A — higher, 0.005 ± 0.04
- I63C — within error, -0.093 ± 0.044
- I63E — higher, -0.031 ± 0.041
- I63D — higher, -0.035 ± 0.044
- I63W — higher, -0.041 ± 0.043
- I63S — higher, 0.021 ± 0.03
- I63R — higher, -0.033 ± 0.03
- I63K — higher, -0.032 ± 0.037
- I63F — higher, 0.016 ± 0.04
- I63T — higher, -0.061 ± 0.033
- I63L — higher, 0.009 ± 0.03
- I63Y — within error, -0.087 ± 0.043
- I63N — higher, 0.034 ± 0.039
- I63M — higher, -0.027 ± 0.035
- I63H — higher, -0.003 ± 0.039
- I63P — lower, -0.846 ± 0.088
- I63V — higher, -0.002 ± 0.032
- I63Q — higher, -0.001 ± 0.042
- R59C — higher, -0.03 ± 0.031
- R59P — higher, -0.025 ± 0.026
- R59L — higher, 0.007 ± 0.022
- R59A — higher, -0.028 ± 0.023
- R59M — higher, -0.039 ± 0.028
- R59D — lower, -0.385 ± 0.036
- R59S — higher, -0.06 ± 0.023
- R59F — higher, 0.005 ± 0.035
- R59V — higher, -0.051 ± 0.022
- R59Q — higher, 0.022 ± 0.028
- R59G — higher, -0.007 ± 0.02
- R59Y — higher, 0.025 ± 0.035
- R59W — higher, -0.025 ± 0.024
- R59E — higher, -0.05 ± 0.027
- R59H — higher, -0.059 ± 0.035
- R59N — higher, -0.025 ± 0.038
- R59T — higher, -0.03 ± 0.026
- A57C — higher, -0.005 ± 0.03
- A57W — higher, 0.016 ± 0.024
- A57I — higher, -0.055 ± 0.035
- A57N — within error, -0.149 ± 0.038
- A57S — higher, -0.009 ± 0.024
- A57D — higher, -0.052 ± 0.034
- A57P — lower, -0.816 ± 0.045
- A57E — higher, -0.022 ± 0.028
- A57T — higher, 0 ± 0.028
- A57R — within error, -0.12 ± 0.021
- A57G — lower, -0.233 ± 0.021
- A57Q — higher, -0.028 ± 0.03
- A57H — within error, -0.083 ± 0.039
- A57L — higher, 0.032 ± 0.023
- A57M — higher, 0.009 ± 0.028
- A57Y — higher, 0.038 ± 0.037
- A57K — higher, -0.055 ± 0.032
- A57F — higher, 0.016 ± 0.038
- P58C — higher, -0.043 ± 0.029
- P58G — higher, -0.014 ± 0.02
- P58W — lower, -0.474 ± 0.029
- P58S — higher, 0.017 ± 0.025
- P58F — lower, -0.33 ± 0.039
- P58Q — within error, -0.091 ± 0.029
- P58T — higher, -0.029 ± 0.027
- P58D — higher, -0.061 ± 0.032
- P58A — higher, -0.067 ± 0.023
- P58E — higher, -0.06 ± 0.026
- P58I — lower, -0.29 ± 0.04
- P58H — within error, -0.09 ± 0.035
- P58V — within error, -0.167 ± 0.023
- P58K — higher, -0.027 ± 0.032
- P58Y — lower, -0.25 ± 0.043
- P58M — lower, -0.217 ± 0.03
- P58R — higher, -0.063 ± 0.02
- P58L — lower, -0.24 ± 0.024
- P58N — higher, -0.04 ± 0.037
